Reference: patent publication CN107286237A

Experiments:
Test in all cases: SPR, BiaCore X-100, TRN1007 captured by goat anti-human IgG on CM5 chip, E2-core as analyte
[1] = molecular target: HCV包膜糖蛋白 HCV-E2-core 基因型2a (Hepatitis C virus genotype 2a)
[2] = molecular target: HCV包膜糖蛋白 HCV-E2-core 基因型6a (Hepatitis C virus genotype 6a)
[3] = molecular target: HCV包膜糖蛋白 HCV-E2-core 基因型4a (Hepatitis C virus genotype 4a)
[4] = molecular target: HCV包膜糖蛋白 HCV-E2-core 基因型7a (Hepatitis C virus genotype 7a)

B1: 全人源抗HCV单克隆中和抗体TRN1007 (antibody, V domains shown)
VH: EVQLVQSGAEVKKPGSSVKVSCKASGGSFRSYGFSWVRQAPGQGLEWMGRIIPAANFADYAPKFQDRVTISADKSTSTAYMELKSLRSDDTAVYYCARDQDLSGELTALYYYHGLDVWGQGTTVTVSS
VL: EIVLTQSPGTLSLSPGQRVTLSCRASQSVSNNYIAWYQQKPGQAPRLLISGASSRATGIPDRFSGTGSGTDFTLAISRLEPEDFAVYYCQQYGDSFWTFGQGTKVEIK
[1]
  Kd: 1.07 pM
  koff: 8.63e-08 s⁻¹
  kon: 80500 M⁻¹ s⁻¹
[2]
  Kd: 179 pM
  koff: 5.36e-07 s⁻¹
  kon: 2990 M⁻¹ s⁻¹
[3]
  Kd: 1.59 pM
  koff: 7.17e-08 s⁻¹
  kon: 45100 M⁻¹ s⁻¹
[4]
  Kd: 17.8 pM
  koff: 1.68e-06 s⁻¹
  kon: 94400 M⁻¹ s⁻¹
